Results from US20140100172A1 (MALLINCKRODT, published 2014).
Like-named read-outs stand apart in the source and are kept apart here. Square brackets hold non-standard residues; d marks the D form. * marks the point of attachment. 2Nal = N[C@@H](Cc1ccc2ccccc2c1)C(=O)O; NMeR = CN[C@@H](CCCNC(=N)N)C(=O)O; Dap = NC[C@H](N)C(=O)O; nal = not defined here; 125I = [125I]*

B1: cyc[D-Tyr-(Me)Arg-Arg-Nal-Gly] (peptide)
peptide: cyclo([dY][NMeR]R[2Nal]G)
SMILES: CN1C(=O)[C@@H](Cc2ccc(O)cc2)NC(=O)CNC(=O)[C@H](Cc2ccc3ccccc3c2)NC(=O)[C@H](CCCNC(=N)N)NC(=O)[C@@H]1CCCNC(=N)N
notes: also called OD1
B2: 125I-CPCR4 (peptide)
peptide: cyclo([dY](125I)RR[2Nal]G)
notes: also called radiolabeled CPCR4
B3: cyc[D-Tyr-His-Arg-Nal-Gly] (peptide)
peptide: cyclo([dY]HR[2Nal]G)
SMILES: N=C(N)NCCC[C@@H]1NC(=O)[C@H](Cc2c[nH]cn2)NC(=O)[C@@H](Cc2ccc(O)cc2)NC(=O)CNC(=O)[C@H](Cc2ccc3ccccc3c2)NC1=O
B4: cyc[D-Tyr-Arg-Arg-nal-Ala-Gly] (peptide)
peptide: cyclo([dY]RR[nal]AG)
modifications: reading uncertain; also: printed as cyc[D-Tyr-Arg-Arg-nal-Ala-Gly]
notes: differs by nal against Nal; also called BL 40
B5: cyc[D-Tyr-Arg-(Me)Arg-Nal-Gly] (peptide)
peptide: cyclo([dY]R[NMeR][2Nal]G)
notes: also called OD3
B6: cyc[D-Tyr-Arg-Arg-Nal-Dap(FP)-Gly] (peptide)
peptide: cyclo([dY]RR[2Nal][Dap]G)
modifications: not fully specified (residue 5); printed as cyc[D-Tyr-Arg-Arg-Nal-Dap(FP)-Gly]
notes: also called BL 58; BL58
B7: human chemokine receptor type 4 (CXCR4) (receptor, UniProt P61073 1-352, looked up)
chain: MEGISIYTSDNYTEEMGSGDYDSMKEPCFREENANFNKIFLPTIYSIIFLTGIVGNGLVILVMGYQKKLRSMTDKYRLHLSVADLLFVITLPFWAVDAVANWYFGNFLCKAVHVIYTVNLYSSVLILAFISLDRYLAIVHATNSQRPRKLLAEKVVYVGVWIPALLLTIPDFIFANVSEADDRYICDRFYPNDLWVVVFQFQHIMVGLILPGIVILSCYCIIISKLSHSKGHQKRKALKTTVILILAFFACWLPYYIGISIDSFILLEIIKQGCEFENTVHKWISITEALAFFHCCLNPILYAFLGAKFKTSAQHALTSVSRGSSLKILSKGKRGGHSSVSTESESSSFHSS
notes: whole, on cells; also called CXCR4 receptor; CXCR4 chemokine receptor

What was measured:
[1] = biological target: B7; experiment: competition with 125I-CPCR4 tracer on CXCR4-expressing cells
[2] = biological target: B7; experiment: radioligand binding on Jurkat and CMS5/CXCR4 cells
[3] = biological target: B7; experiment: saturation radioligand binding, Jurkat and CMS5/CXCR4 cells
[4] = biological target: B7; experiment: competition with 125I-CPCR4 tracer on CXCR4-expressing cells; remark: listed apart in the source
[5] = biological target: B7; experiment: as above; remark: listed apart in the source
[6] = biological target: B7; experiment: as above; remark: listed apart in the source
[7] = biological target: T1, recombinant human SDF-1α (stromal cell-derived factor 1α) (human, UniProt P48061-2 22-89); experiment: competitive radioligand binding on CXCR4-expressing cells
T1 construct: also called SFD-1α

**Q.** How did the IC50 [1] turn out when B1 was run?
**A.** 23 nM

**Q.** Which results are given for B2?
**A.** Kd [2]: 0.4 nM; Kd [3]: 0.3 to 0.4 nM

**Q.** How did the IC50 [4] turn out when B3 was run?
**A.** 30 nM

**Q.** Which IC50 [5] does the source give for B4 here?
**A.** ~1000 nM

**Q.** With B5 as the binder, how does the IC50 [1] read?
**A.** 31 nM

**Q.** B6 was tested. Which IC50 [6] did it give?
**A.** ~1000 nM

**Q.** Does B7 bind [7]?
**A.** binds
